# Test results reported in patent US6528487B1, “Peptide inhibitors of inflammation mediated by selectins” (Centocor, Inc., priority 1991, dated 2003).
# No end group written: not given here. *: point of attachment. Fmoc = O=C(OCC1c2ccccc2-c2ccccc21)*
# Target: T1, GMP-140 (Homo sapiens, UniProt P16109)
# T1 construct: from tissue; host or cells: human platelets (outdated platelet packs from a blood bank)
# T1 sequence (P16109 42-830): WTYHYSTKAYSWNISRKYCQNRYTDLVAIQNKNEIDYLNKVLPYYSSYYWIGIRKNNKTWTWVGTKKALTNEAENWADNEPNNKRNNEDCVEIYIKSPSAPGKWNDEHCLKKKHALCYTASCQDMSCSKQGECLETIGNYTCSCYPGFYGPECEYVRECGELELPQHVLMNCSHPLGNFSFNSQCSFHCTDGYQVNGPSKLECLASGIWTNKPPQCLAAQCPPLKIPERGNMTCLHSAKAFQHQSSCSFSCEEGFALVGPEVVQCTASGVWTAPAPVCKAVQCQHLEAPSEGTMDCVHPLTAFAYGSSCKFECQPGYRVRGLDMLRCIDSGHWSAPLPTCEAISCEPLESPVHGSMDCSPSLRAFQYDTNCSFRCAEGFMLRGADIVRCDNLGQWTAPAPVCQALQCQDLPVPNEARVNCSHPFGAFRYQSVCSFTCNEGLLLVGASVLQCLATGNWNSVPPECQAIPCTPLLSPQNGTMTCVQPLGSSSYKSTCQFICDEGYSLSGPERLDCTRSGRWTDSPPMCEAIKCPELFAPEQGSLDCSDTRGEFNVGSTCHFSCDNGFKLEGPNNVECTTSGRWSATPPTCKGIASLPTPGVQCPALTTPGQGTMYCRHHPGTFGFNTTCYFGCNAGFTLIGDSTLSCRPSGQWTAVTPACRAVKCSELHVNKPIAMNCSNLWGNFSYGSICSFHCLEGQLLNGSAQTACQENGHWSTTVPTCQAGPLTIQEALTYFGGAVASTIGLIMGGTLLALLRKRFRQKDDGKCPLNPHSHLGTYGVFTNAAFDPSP
# Test: Inhibition of neutrophil binding to GMP-140 coated wells
# Assay type: cell-based
# Details: human neutrophils, immobilized GMP-140; for inhibition at 100 µM / inhibition at 500 µM / inhibition at 1000 µM: read-out: Percent inhibition of neutrophil binding to GMP-140
# From the text: Peptides can be screened for their ability to inhibit adhesion to cells, for example, neutrophil adhesion to purified GMP-140 immobilized on plastic wells, using the assay described by Geng, et al., Nature 343, 757-760 (1990).
# Human neutrophils are isolated from heparinized whole blood by density gradient centrifugation on Mono-Poly resolving media, Flow laboratories. Neutrophil suspensions are greater than 98% pure and greater than 95% viable by trypan blue exclusion. For adhesion assays, neutrophils are suspended at a concentration of 2×10^6 cells/mL in Hanks' balanced salt solution containing 1.26 mM Ca^2+ and 0.81 mM Mg^2+ (HBSS, Gibco) with 5 mg/mL human serum albumin (HBSS/HSA). Adhesion assays are conducted in triplicate in 96-well microtiter plates, Corning, incubated at 4° C. overnight with 50 microliters of various protein solutions.
# GMP-140 is isolated from human platelet lysates by immunoaffinity chromatography on antibody S12-Sepharose™ and ion-exchange chromatography on a Mono-Q™ column (FLPC, Pharmacia Fine Chemicals, as follows.
# GMP-140 is plated at 5 micrograms/mL and the control proteins: human serum albumin (Alb), platelet glycoprotein Iib/IIIha (Iib), von Willebrand factor (vWF), fibrinogen (FIB), thrombomodulin™, gelatin (GEL) or human serum (HS), are added at 50 micrograms/mL. All wells are blocked for 2 h at 22° C. with 300 microliters HBSS containing 10 mg/mL HSA, then ashed three times with HBSS containing 0.1% Tween-20 and once with HBSS. Cells (2×10^5 per well are added to the wells and incubated at 22° C. for 20 min. The wells are then filled with HGSS/HSA, sealed with acetate tape (Dynatech), and centrifuged inverted at 150 g for 5 min. After discarding nonadherent cells and supemates, the contents of each well are solubilized with 200 microliters of 0.5% hexadecyltrimethylammonium bromide, Sigma, in 50 mM potassium phosphate, pH 6.0, and assayed for myeloperoxidase activity, Ley, et al., Blood 73, 1324-1330 (1989). The number of cells bound is derived from a standard curve of myeloperoxidase activity versus numbers of cells. Under all assay conditions, the cells release less than 5% of total myeloperoxidase and lactate dehydrogenase. Inhibition is read as a lower percent adhesion, so that a value of 5% means that 95% of the specific adhesion was inhibited.
# Binding of various peptides to GMP-140 coated wells, as described above, were compared.
# Binding of the peptides at various concentrations, ranging from 0.05 to 1 mM were compared.
# A 5 μg/mL solution of GMP-140 in HBSS (buffer) is prepared. 50 μL is pipetted per well with the exception of three wells (A10 to A12) and the plate is stored overnight at 0° C. to 4° C. The liquids are removed by aspiration and 300 μL of 5 mg/mL human serum albumin (HSA)/HBSS is placed in the wells coated with GMP-140 plus the three non-coated wells to be used as control wells. The plate is allowed to incubate at room temperature for two hours. The HSA/HBSS solution is removed and the wells washed three times with 300 μL/well of HBSS. The third 300 μL wash of HBSS is left in each well and the plate is kept at room temperature until it is used.
# Eight to ten mL of fresh human blood collected in heparinized tubes is carefully layered over 5 mL of the Mono-Poly Resolving Medium in 15 mL polypropylene centrifuge tubes. The tubes are centrifuged for 30 minutes at room temperature and 1400 to 1600 rpm. The tubes are rotated 180° and centrifuged for another 30 minutes under the same conditions. The top plasma layer and first cellular layer of leukocytes are drawn off. The second cellular layer of neutrophils is harvested (usually 2 to 3 mL per tube) and is placed in a clean 15 mL centrifuge tube. This is then underlayered with 1.5 mL of fresh resolving medium and spun at 2000 rpm for 15 minutes at room temperature. This is done to further purify the neutrophils from residual red blood cells. […]
Substance,Percent inhibition of neutrophil binding to GMP-140 (peptide concentration 0.1 mM),Percent inhibition of neutrophil binding to GMP-140 (peptide concentration 0.5 mM),Percent inhibition of neutrophil binding to GMP-140 (peptide concentration 1.0 mM),inhibition at 100 µM (peptide concentration 0.1 mM),inhibition at 500 µM (peptide concentration 0.5 mM),inhibition at 1000 µM (peptide concentration 1.0 mM)
Cys-Arg-Lys-Asn-Asn-Lys-Thr-Trp-Thr-Trp-Val-NH2 (CRKNNKTWTWV-NH2),87%,,105%,,,
"RKVNNVWVWV-NH2 [RKVNNVWVWV-NH2, Arginyl-lysyl-valyl-asparaginyl-asparaginyl-valyl-tryptophyl-valyl-tryptophyl-valine-amide]",,,,94%,102%,
"RKNNGTWTWV-NH2 [RKNNGTWTWV-NH2, Arginyl-lysyl-asparaginyl-asparaginyl-glycyl-threonyl-tryptophyl-threonyl-tryptophyl-valine-amide]",,,,46%,99%,99%
Arg-Lys-Asn-Asn-Lys-Thr-Trp-Thr-Trp-Glu-NH2 (RKNNKTWTWE-NH2),17%,20%,,,,
Arg-Lys-Asn-Asn-Lys-Thr-Trp-NH2 (RKNNKTW-NH2),31%,53%,99%,,,
RKNNKTWTWVGTKKALTNEC-NH2 [Arginyl-lysyl-asparaginyl-asparaginyl-lysyl-threonyl-tryptophyl-threonyl-tryptophyl-valyl-glycyl-threonyl-lysyl-lysyl-alanyl-leucyl-threonyl-asparaginyl-glutamyl-cysteine-amide],,,,9%,,47%
RKNNKTWTWV (Synthetic inhibitory peptide) [Arginyl-lysyl-asparaginyl-asparaginyl-lysyl-threonyl-tryptophyl-hreonyl-tryptophyl-valine],14%,,35%,,,

# Other lines, results leading:
Percent inhibition of neutrophil binding to GMP-140 (peptide concentration 0.1 mM),Percent inhibition of neutrophil binding to GMP-140 (peptide concentration 0.5 mM),Percent inhibition of neutrophil binding to GMP-140 (peptide concentration 1.0 mM),inhibition at 100 µM (peptide concentration 0.1 mM),inhibition at 500 µM (peptide concentration 0.5 mM),inhibition at 1000 µM (peptide concentration 1.0 mM),Substance
35%,50%,,,,,Ac-Arg-Lys-Asn-Asn-Lys-Thr-Trp-Thr-Trp-Val-NH2 (Ac-RKNNKTWTWV-NH2)
9%,98%,104%,,,,Tyr-Lys-Asn-Asn-Lys-Thr-Trp-Thr-Trp-Val-NH2 (YKNNKTWTWV-NH2)
34%,94%,96%,,,,Arg-Glu-Asn-Asn-Lys-Thr-Trp-Thr-Trp-Val-NH2 (RENNKTWTWV-NH2)
85%,100%,99%,,,,FMOC-Asn-Asn-Lys-Thr-Trp-NH2 (Fmoc-NNKTW-NH2; SMILES C[C@@H](O)[C@H](NC(=O)[C@H](CCCCN)NC(=O)[C@H](CC(N)=O)NC(=O)[C@H](CC(N)=O)NC(=O)OCC1c2ccccc2-c2ccccc21)C(=O)N[C@@H](Cc1c[nH]c2ccccc12)C(N)=O)
26%,23%,34%,,,,RKNNKTWT-NH2
14%,30%,,13%,20%,,"RKNNKTWTWV-NH2 [RKNNKTWTWV-NH2, Arginyl-lysyl-asparaginyl-asparaginyl-lysyl-threonyl-tryptophyl-threonyl-tryptophyl-valine-amide]"
